Literature values as cited in publication PMC7488126.

Experiments:
CD48 (Homo sapiens) = CD48 (Homo sapiens) (UniProt P09326)
B7H6 (Homo sapiens) = B7H6 (Homo sapiens) (UniProt Q68D85)
CD155 (Homo sapiens) = CD155 (Homo sapiens) (UniProt P15151)
CD112 (Homo sapiens) = CD112 (Homo sapiens) (UniProt Q92692)
Chain of UniProt Q92692 (Q92692 32-360): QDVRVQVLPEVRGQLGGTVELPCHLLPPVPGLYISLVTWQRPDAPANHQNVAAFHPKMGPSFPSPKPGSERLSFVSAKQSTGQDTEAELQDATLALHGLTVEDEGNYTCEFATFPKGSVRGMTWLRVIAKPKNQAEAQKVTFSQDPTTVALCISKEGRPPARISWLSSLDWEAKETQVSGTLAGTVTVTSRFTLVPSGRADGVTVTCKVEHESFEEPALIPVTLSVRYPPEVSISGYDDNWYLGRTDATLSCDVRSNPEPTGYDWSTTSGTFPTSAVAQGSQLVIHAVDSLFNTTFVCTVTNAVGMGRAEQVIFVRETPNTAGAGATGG

Chain of UniProt Q68D85 (Q68D85 25-262): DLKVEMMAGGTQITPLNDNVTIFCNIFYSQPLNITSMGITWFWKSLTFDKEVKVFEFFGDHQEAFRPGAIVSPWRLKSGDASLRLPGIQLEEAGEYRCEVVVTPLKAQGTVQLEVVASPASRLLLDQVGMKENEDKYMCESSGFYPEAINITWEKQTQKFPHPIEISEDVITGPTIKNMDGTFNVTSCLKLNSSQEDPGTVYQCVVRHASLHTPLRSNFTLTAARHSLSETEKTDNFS
Chain of UniProt P09326 (P09326 27-220): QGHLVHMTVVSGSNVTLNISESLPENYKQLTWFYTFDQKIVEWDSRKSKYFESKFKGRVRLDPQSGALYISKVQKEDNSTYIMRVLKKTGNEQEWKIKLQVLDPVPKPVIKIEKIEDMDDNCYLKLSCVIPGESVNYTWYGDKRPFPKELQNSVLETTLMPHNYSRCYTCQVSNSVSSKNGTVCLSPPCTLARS
Chain of UniProt P15151 (P15151 21-343): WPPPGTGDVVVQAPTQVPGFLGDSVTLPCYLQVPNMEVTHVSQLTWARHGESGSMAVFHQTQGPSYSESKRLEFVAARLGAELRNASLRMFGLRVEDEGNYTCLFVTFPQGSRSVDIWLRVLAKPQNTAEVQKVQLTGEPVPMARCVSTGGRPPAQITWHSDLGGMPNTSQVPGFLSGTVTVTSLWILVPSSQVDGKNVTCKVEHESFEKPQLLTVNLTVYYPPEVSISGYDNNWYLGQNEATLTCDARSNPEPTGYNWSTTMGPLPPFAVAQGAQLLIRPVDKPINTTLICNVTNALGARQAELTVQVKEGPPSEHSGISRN

For 2B4 ECD (from UniProt Q9BZW8), the Kd (CD48 (Homo sapiens)) is listed as 8 µM.

In the case of “NKp30 Ig variable domain (from UniProt O14931)”, the Kd (B7H6 (Homo sapiens)) is given as 1000 nM.

In the case of DNAM-1 (from UniProt Q15762), the Kd (CD155 (Homo sapiens)) is listed as 230 nM and the Kd (CD112 (Homo sapiens)) is listed as 310 nM.
